This passage reports maximal cytolysis of SKOV3 tumor cells (xCELLigence, donor T cells, E:T 1:1) results from patent US20240002532A1.

The assay concerns the target HER2 (human epidermal growth factor receptor 2) (human) (UniProt P04626). Nature of the assay: cell-based or functional assay.

In turn, “CasMab250 (H/L)-based CAR with medium spacer (IgG4 hinge & CH3 domain) and CD28-CD3ζ1XX intracellular signaling domains” showed a maximal cytolysis of SKOV3 tumor cells (xCELLigence, donor T cells, E:T 1:1) of 90%.
